Values joined by “and” are separate entries in the source; they are usually repeats but may differ in a detail not shown here. Equal entries are not always repeated.
Key:
mouse kidneys = assay: Binary logistic regression of absorbed kidney dose versus renal histopathology; type: in vivo; settings: 19 weeks, males and females combined, n = 30; 95% CI: 6.66–11.18 Gy
Method: Statistical analysis was performed using GraphPad PRISM software (version 5). Significance levels were set at 5%. A simple binary logistic regression analysis was performed to determine a dose–effect relation between the absorbed dose and the histopathological findings in the kidneys using the log-likelihood ratio test as a significance indicator. The weight gain over time of control group 2 and treatment groups 1, 2, and 3 was compared to control group 1 by performing a two-way multiple comparison analysis of variance (ANOVA) with a Bonferroni correction. Significant outliers in the blood values set were detected with the Grubbs’ test and excluded from the data set. At a given time point, the measurements of all study groups were compared by performing a one-way ANOVA and in case of significance a Tukey test to correct for multiple comparisons. All data are represented as mean ± standard deviation (SD).
Binary logistic regression analysis was performed to determine a dose–effect relationship for the incidence of renal toxicity (Fig. 5).

healthy Balb/c mice = assay: Toxicity study, clinical chemistry; type: in vivo, mouse; settings: 5, 11, 19, 30, 43 wk, mean±SD
Method: Five different experimental groups (10 male and 10 female healthy animals per group; n = 100) were included in the radiotoxicity study and treated as follows: control group 1: 3 × vehicle (PBS + kolliphor HS 15 (1 mg/mL)); control group 2: 3 × 1200 pmol [^175Lu]Lu-NeoB; treatment group 1: 3 × 40 MBq/400 pmol [^177Lu]Lu-NeoB; treatment group 2: 3 × 80 MBq/800 pmol [^177Lu]Lu-NeoB; and treatment group 3: 3 × 120 MBq/1200 pmol [^177Lu]Lu-NeoB.
Animals received 3 injections with an interval of 7 days between each injection.
In addition, the following clinical chemistry parameters were measured: sodium, potassium chloride, calcium, glucose, creatinine, urea, alanine aminotransferase (ALT), aspartate aminotransferase (AST), alkaline phosphatase (ALP), amylase, lipase, and cholesterol, using the Roche/Hitachi cobas c systems according to the standard protocol. To reach the volume necessary for measuring the clinical chemistry parameters, the blood plasma was diluted 3–5 times with demineralized water.

`CC(C)CC(CC(C)C)NC(=O)[C@H](Cc1cnc[nH]1)NC(=O)CNC(=O)[C@@H](NC(=O)[C@H](C)NC(=O)[C@H](Cc1c[nH]c2ccccc12)NC(=O)[C@H](CCC(N)=O)NC(=O)[C@@H](Cc1ccccc1)NC(=O)COCC(=O)Nc1ccc(CNC(=O)CN2CCN(CC(=O)O)CCN(CC(=O)O)CCN(CC(=O)O)CC2)cc1)C(C)C` [[^177Lu]Lu-NeoB, metal not drawn] was tested, and the “ED50 of absorbed kidney dose for hydronephrosis” value (mouse kidneys) was 8.65 Gy, the “Alk. Phosphatase” value (healthy Balb/c mice; female, treatment group 1) was 104.70 ± 11.61 U/L and 85.71 ± 8.98 U/L and 68.75 ± 4.76 U/L and 75.00 ± 0.00 U/L and 86.67 ± 16.07 U/L and the Urea (healthy Balb/c mice; female, treatment group 1) was 6.84 ± 1.27 mmol/L and 7.24 ± 1.10 mmol/L and 7.29 ± 1.04 mmol/L and 7.00 ± 1.78 mmol/L and 6.00 ± 0.00 mmol/L. For the same molecule, the “Alk. Phosphatase” value (healthy Balb/c mice; female, treatment group 2) was 88.75 ± 7.50 U/L and 96.60 ± 11.73 U/L and 92.57 ± 8.90 U/L and 75.00 ± 8.16 U/L and 87.50 ± 8.66 U/L, the Urea (healthy Balb/c mice; female, treatment group 2) was 8.13 ± 2.95 mmol/L and 9.48 ± 0.83 mmol/L and 7.41 ± 0.62 mmol/L and 6.64 ± 1.07 mmol/L and 7.50 ± 0.71 mmol/L and the “Alk. Phosphatase” value (healthy Balb/c mice; female, treatment group 3) was 96.00 ± 15.81 U/L and 93.00 ± 4.65 U/L and 81.43 ± 10.69 U/L and 90.00 ± 9.13 U/L and 110.00 ± 26.46 U/L. The Urea (healthy Balb/c mice; female, treatment group 3) was 8.94 ± 1.32 mmol/L and 7.97 ± 1.26 mmol/L and 8.50 ± 1.80 mmol/L and 9.25 ± 2.40 mmol/L and 8.63 ± 2.56 mmol/L, the “Alk. Phosphatase” value (healthy Balb/c mice; male, treatment group 1) was 114.00 ± 8.28 U/L and 98.57 ± 4.04 U/L and 70.00 ± 0.00 U/L and 85.00 ± 10.00 U/L and 68.33 ± 20.82 U/L and the Urea (healthy Balb/c mice; male, treatment group 1) was 7.44 ± 0.85 mmol/L and 6.60 ± 0.60 mmol/L and 7.00 ± 0.00 mmol/L and 7.50 ± 0.00 mmol/L. The “Alk. Phosphatase” value (healthy Balb/c mice; male, treatment group 2) was 75.00 ± 15.81 U/L and 112.40 ± 16.22 U/L and 96.86 ± 9.44 U/L and 85.00 ± 0.00 U/L and 80.00 ± 0.00 U/L, the Urea (healthy Balb/c mice; male, treatment group 2) was 7.33 ± 1.26 mmol/L and 7.46 ± 1.14 mmol/L and 7.24 ± 1.41 mmol/L and 7.13 ± 0.85 mmol/L and 8.00 ± 1.35 mmol/L and the “Alk. Phosphatase” value (healthy Balb/c mice; male, treatment group 3) was 103.20 ± 13.73 U/L and 99.43 ± 5.59 U/L and 83.75 ± 7.50 U/L and 87.50 ± 8.66 U/L and 80.00 ± 17.80 U/L. For the same molecule, the Urea (healthy Balb/c mice; male, treatment group 3) was 7.59 ± 1.51 mmol/L and 6.77 ± 0.71 mmol/L and 7.25 ± 0.87 mmol/L and 6.50 ± 0.00 mmol/L and 6.75 ± 1.04 mmol/L.
